*1 amine or outer side, *2 acyl side, *3 side chain or, on linkers, in order; H or OH if unused. [ ]: non-standard residue; d: D form. TyrEtNAc = L-tyrosine O-ethyl acetamide, (S)-3-(4-(2-acetamidoethoxy)phenyl)-2-aminopropanoic acid, CC(=O)NCCOc1ccc(C[C@H](N[*:1])C(=O)[*:2])cc1; 3Pal4Ph4CO2H = (S)-4-(5-(2-amino-2-carboxyethyl)pyridin-2-yl)benzoic acid, O=C([C@H](Cc1ccc(-c2ccc(C(=O)[*:3])cc2)nc1)N[*:1])[*:2]; TyrEtMor = (S)-2-amino-3-(4-(2-morpholinoethoxy)phenyl)propanoic acid, O=C([C@H](Cc1ccc(OCCN2CCOCC2)cc1)N[*:1])[*:2]; Pro(trans-4-NH2) = O=C([C@@H]1C[C@@H](N[*:3])CN1[*:1])[*:2]; Bip(4'-COOH) = N[C@@H](Cc1ccc(-c2ccc(C(=O)O)cc2)cc1)C(=O)O; 1Nal(3S-Me) = C[C@@H](c1cccc2ccccc12)[C@H](N)C(=O)O; Ala(indazol-1-yl) = N[C@@H](Cn1ncc2ccccc21)C(=O)O; Ala(indolin-1-yl) = N[C@@H](CN1CCc2ccccc21)C(=O)O; Phe(4-COOH) = N[C@@H](Cc1ccc(C(=O)O)cc1)C(=O)O; 1Nal = N[C@@H](Cc1cccc2ccccc12)C(=O)O; hTyr = N[C@@H](CCc1ccc(O)cc1)C(=O)O; hPhe = N[C@@H](CCc1ccccc1)C(=O)O; dNMeA = CN[C@H](C)C(=O)O; Dab = NCC[C@H](N)C(=O)O; Dap = NC[C@H](N)C(=O)O; Aib = CC(C)(N)C(=O)O
Target: Recombinant human IL-1β (BioLegend 579404) (human, UniProt P01584 117-269)
Test: cell-based or functional assay

Row | MRC5 IC50 | Binder
1 | 0.175 nM | cyclo([Bip(4'-COOH)]W[Phe(4-COOH)]G[Pro(trans-4-NH2)][1Nal(3S-Me)]D[dNMeA]G[Bip(4'-COOH)][1Nal][Dab][Aib][hTyr]) (SMILES C[C@@H]1C(=O)NCC(=O)N[C@@H](Cc2ccc(-c3ccc(C(=O)O)cc3)cc2)C(=O)N[C@@H](Cc2cccc3ccccc23)C(=O)N[C@@H](CCN)C(=O)NC(C)(C)C(=O)N[C@@H](CCc2ccc(O)cc2)C(=O)N[C@@H](Cc2ccc(-c3ccc(C(=O)O)cc3)cc2)C(=O)N[C@@H](Cc2c[nH]c3ccccc23)C(=O)N[C@@H](Cc2ccc(C(=O)O)cc2)C(=O)NCC(=O)N2C[C@H](N)C[C@H]2C(=O)N[C@@H]([C@@H](C)c2cccc3ccccc23)C(=O)N[C@@H](CC(=O)O)C(=O)N1C) [SEQ ID NO: 16]
2 | 0.86 nM | cyclo([TyrEtNAc]W[Phe(4-COOH)]G[Pro(trans-4-NH2)][1Nal(3S-Me)]D[dNMeA]G[Bip(4'-COOH)]W[Dap][dA][TyrEtMor]) (SMILES CC(=O)NCCOc1ccc(C[C@@H]2NC(=O)[C@H](Cc3ccc(OCCN4CCOCC4)cc3)NC(=O)[C@@H](C)NC(=O)[C@H](CN)NC(=O)[C@H](Cc3c[nH]c4ccccc34)NC(=O)[C@H](Cc3ccc(-c4ccc(C(=O)O)cc4)cc3)NC(=O)CNC(=O)[C@@H](C)N(C)C(=O)[C@H](CC(=O)O)NC(=O)[C@H]([C@@H](C)c3cccc4ccccc34)NC(=O)[C@@H]3C[C@@H](N)CN3C(=O)CNC(=O)[C@H](Cc3ccc(C(=O)O)cc3)NC(=O)[C@H](Cc3c[nH]c4ccccc34)NC2=O)cc1) [SEQ ID NO: 120]
3 | 0.973 nM | cyclo([TyrEtNAc]W[Phe(4-COOH)]G[Pro(trans-4-NH2)][1Nal(3S-Me)]D[dNMeA]G[Bip(4'-COOH)]W[Dap][dA]A) (SMILES CC(=O)NCCOc1ccc(C[C@@H]2NC(=O)[C@H](C)NC(=O)[C@@H](C)NC(=O)[C@H](CN)NC(=O)[C@H](Cc3c[nH]c4ccccc34)NC(=O)[C@H](Cc3ccc(-c4ccc(C(=O)O)cc4)cc3)NC(=O)CNC(=O)[C@@H](C)N(C)C(=O)[C@H](CC(=O)O)NC(=O)[C@H]([C@@H](C)c3cccc4ccccc34)NC(=O)[C@@H]3C[C@@H](N)CN3C(=O)CNC(=O)[C@H](Cc3ccc(C(=O)O)cc3)NC(=O)[C@H](Cc3c[nH]c4ccccc34)NC2=O)cc1) [SEQ ID NO: 118]
4 | 0.0602 nM | cyclo([TyrEtNAc]W[Phe(4-COOH)]G[Pro(trans-4-NH2)][1Nal(3S-Me)]D[dNMeA]G[Bip(4'-COOH)]W[Dap][dA][hTyr]) (SMILES CC(=O)NCCOc1ccc(C[C@@H]2NC(=O)[C@H](CCc3ccc(O)cc3)NC(=O)[C@@H](C)NC(=O)[C@H](CN)NC(=O)[C@H](Cc3c[nH]c4ccccc34)NC(=O)[C@H](Cc3ccc(-c4ccc(C(=O)O)cc4)cc3)NC(=O)CNC(=O)[C@@H](C)N(C)C(=O)[C@H](CC(=O)O)NC(=O)[C@H]([C@@H](C)c3cccc4ccccc34)NC(=O)[C@@H]3C[C@@H](N)CN3C(=O)CNC(=O)[C@H](Cc3ccc(C(=O)O)cc3)NC(=O)[C@H](Cc3c[nH]c4ccccc34)NC2=O)cc1) [SEQ ID NO: 119]
5 | 0.0551 nM | cyclo([Bip(4'-COOH)]W[Phe(4-COOH)]G[Pro(trans-4-NH2)][1Nal(3S-Me)]D[dNMeA]G[3Pal4Ph4CO2H]W[Dap][dA][hTyr]) (SMILES C[C@@H]1C(=O)NCC(=O)N[C@@H](Cc2ccc(-c3ccc(C(=O)O)cc3)nc2)C(=O)N[C@@H](Cc2c[nH]c3ccccc23)C(=O)N[C@@H](CN)C(=O)N[C@H](C)C(=O)N[C@@H](CCc2ccc(O)cc2)C(=O)N[C@@H](Cc2ccc(-c3ccc(C(=O)O)cc3)cc2)C(=O)N[C@@H](Cc2c[nH]c3ccccc23)C(=O)N[C@@H](Cc2ccc(C(=O)O)cc2)C(=O)NCC(=O)N2C[C@H](N)C[C@H]2C(=O)N[C@@H]([C@@H](C)c2cccc3ccccc23)C(=O)N[C@@H](CC(=O)O)C(=O)N1C) [SEQ ID NO: 12]
6 | 0.222 nM | cyclo([Bip(4'-COOH)]W[Phe(4-COOH)]G[Pro(trans-4-NH2)][1Nal(3S-Me)]D[dNMeA]G[Bip(4'-COOH)][1Nal][Dap][Aib]G) (SMILES C[C@@H]1C(=O)NCC(=O)N[C@@H](Cc2ccc(-c3ccc(C(=O)O)cc3)cc2)C(=O)N[C@@H](Cc2cccc3ccccc23)C(=O)N[C@@H](CN)C(=O)NC(C)(C)C(=O)NCC(=O)N[C@@H](Cc2ccc(-c3ccc(C(=O)O)cc3)cc2)C(=O)N[C@@H](Cc2c[nH]c3ccccc23)C(=O)N[C@@H](Cc2ccc(C(=O)O)cc2)C(=O)NCC(=O)N2C[C@H](N)C[C@H]2C(=O)N[C@@H]([C@@H](C)c2cccc3ccccc23)C(=O)N[C@@H](CC(=O)O)C(=O)N1C) [SEQ ID NO: 17]
7 | 0.0297 nM | cyclo([Bip(4'-COOH)]W[Phe(4-COOH)]G[Pro(trans-4-NH2)][1Nal(3S-Me)]D[dNMeA]G[Bip(4'-COOH)][Ala(indolin-1-yl)][Dap][dA][hTyr]) (SMILES C[C@@H]1C(=O)NCC(=O)N[C@@H](Cc2ccc(-c3ccc(C(=O)O)cc3)cc2)C(=O)N[C@@H](CN2CCc3ccccc32)C(=O)N[C@@H](CN)C(=O)N[C@H](C)C(=O)N[C@@H](CCc2ccc(O)cc2)C(=O)N[C@@H](Cc2ccc(-c3ccc(C(=O)O)cc3)cc2)C(=O)N[C@@H](Cc2c[nH]c3ccccc23)C(=O)N[C@@H](Cc2ccc(C(=O)O)cc2)C(=O)NCC(=O)N2C[C@H](N)C[C@H]2C(=O)N[C@@H]([C@@H](C)c2cccc3ccccc23)C(=O)N[C@@H](CC(=O)O)C(=O)N1C) [SEQ ID NO: 14]
8 | 0.653 nM | cyclo([Bip(4'-COOH)]W[Phe(4-COOH)]G[Pro(trans-4-NH2)][1Nal(3S-Me)]D[dNMeA]G[Bip(4'-COOH)][1Nal][Dab][Aib]G) (SMILES C[C@@H]1C(=O)NCC(=O)N[C@@H](Cc2ccc(-c3ccc(C(=O)O)cc3)cc2)C(=O)N[C@@H](Cc2cccc3ccccc23)C(=O)N[C@@H](CCN)C(=O)NC(C)(C)C(=O)NCC(=O)N[C@@H](Cc2ccc(-c3ccc(C(=O)O)cc3)cc2)C(=O)N[C@@H](Cc2c[nH]c3ccccc23)C(=O)N[C@@H](Cc2ccc(C(=O)O)cc2)C(=O)NCC(=O)N2C[C@H](N)C[C@H]2C(=O)N[C@@H]([C@@H](C)c2cccc3ccccc23)C(=O)N[C@@H](CC(=O)O)C(=O)N1C) [SEQ ID NO: 15]
9 | 0.16 nM | cyclo([TyrEtNAc]W[Phe(4-COOH)]G[Pro(trans-4-NH2)][1Nal(3S-Me)]D[dNMeA]G[Bip(4'-COOH)]W[Dap][Aib][hTyr]) (SMILES CC(=O)NCCOc1ccc(C[C@@H]2NC(=O)[C@H](CCc3ccc(O)cc3)NC(=O)C(C)(C)NC(=O)[C@H](CN)NC(=O)[C@H](Cc3c[nH]c4ccccc34)NC(=O)[C@H](Cc3ccc(-c4ccc(C(=O)O)cc4)cc3)NC(=O)CNC(=O)[C@@H](C)N(C)C(=O)[C@H](CC(=O)O)NC(=O)[C@H]([C@@H](C)c3cccc4ccccc34)NC(=O)[C@@H]3C[C@@H](N)CN3C(=O)CNC(=O)[C@H](Cc3ccc(C(=O)O)cc3)NC(=O)[C@H](Cc3c[nH]c4ccccc34)NC2=O)cc1) [SEQ ID NO: 117]
10 | 0.031 nM | cyclo([Bip(4'-COOH)]W[Phe(4-COOH)]G[Pro(trans-4-NH2)][1Nal(3S-Me)]D[dNMeA]G[Bip(4'-COOH)][Ala(indazol-1-yl)][Dap][dA][hTyr]) (SMILES C[C@@H]1C(=O)NCC(=O)N[C@@H](Cc2ccc(-c3ccc(C(=O)O)cc3)cc2)C(=O)N[C@@H](Cn2ncc3ccccc32)C(=O)N[C@@H](CN)C(=O)N[C@H](C)C(=O)N[C@@H](CCc2ccc(O)cc2)C(=O)N[C@@H](Cc2ccc(-c3ccc(C(=O)O)cc3)cc2)C(=O)N[C@@H](Cc2c[nH]c3ccccc23)C(=O)N[C@@H](Cc2ccc(C(=O)O)cc2)C(=O)NCC(=O)N2C[C@H](N)C[C@H]2C(=O)N[C@@H]([C@@H](C)c2cccc3ccccc23)C(=O)N[C@@H](CC(=O)O)C(=O)N1C) [SEQ ID NO: 13]
11 | 0.492 nM | cyclo([TyrEtNAc]W[Phe(4-COOH)]G[Pro(trans-4-NH2)][1Nal(3S-Me)]D[dNMeA]G[Bip(4'-COOH)]W[Dab][dA][hTyr]) (SMILES CC(=O)NCCOc1ccc(C[C@@H]2NC(=O)[C@H](CCc3ccc(O)cc3)NC(=O)[C@@H](C)NC(=O)[C@H](CCN)NC(=O)[C@H](Cc3c[nH]c4ccccc34)NC(=O)[C@H](Cc3ccc(-c4ccc(C(=O)O)cc4)cc3)NC(=O)CNC(=O)[C@@H](C)N(C)C(=O)[C@H](CC(=O)O)NC(=O)[C@H]([C@@H](C)c3cccc4ccccc34)NC(=O)[C@@H]3C[C@@H](N)CN3C(=O)CNC(=O)[C@H](Cc3ccc(C(=O)O)cc3)NC(=O)[C@H](Cc3c[nH]c4ccccc34)NC2=O)cc1) [SEQ ID NO: 116]
12 | 0.085 nM | cyclo([TyrEtNAc]W[Phe(4-COOH)]G[Pro(trans-4-NH2)][1Nal(3S-Me)]D[dNMeA]G[Bip(4'-COOH)]W[Dab][dA][hPhe]) (SMILES CC(=O)NCCOc1ccc(C[C@@H]2NC(=O)[C@H](CCc3ccccc3)NC(=O)[C@@H](C)NC(=O)[C@H](CCN)NC(=O)[C@H](Cc3c[nH]c4ccccc34)NC(=O)[C@H](Cc3ccc(-c4ccc(C(=O)O)cc4)cc3)NC(=O)CNC(=O)[C@@H](C)N(C)C(=O)[C@H](CC(=O)O)NC(=O)[C@H]([C@@H](C)c3cccc4ccccc34)NC(=O)[C@@H]3C[C@@H](N)CN3C(=O)CNC(=O)[C@H](Cc3ccc(C(=O)O)cc3)NC(=O)[C@H](Cc3c[nH]c4ccccc34)NC2=O)cc1) [SEQ ID NO: 115]

— patent publication US20230406885A1, “CYCLIC PEPTIDES FOR TRAPPING INTERLEUKIN-1 BETA” (MERCK SHARP & DOHME LLC, priority 2022, published 2023)
